Assay results as given in the supplement of paper PMC9170038.

System: MS2 coat protein
Test: apparent KD of MS2 coat protein; designed switch direction (-1 OFF switch, 1 ON switch): -1; higher = weaker reporter binding
Outline: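 Designed RNA switches were transcribed on Illumina chips by stalled E. coli RNA polymerase and titrated with SNAP-549-labelled MS2 coat protein from 0.7 or 1.5 nM, doubling to 3 µM. Step length ran from 0.8–1.5 h at the lowest concentration to 10–20 min at the highest. The apparent KD is the median over clusters for each design, from curve-fitted normalised cluster fluorescence.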

[1] = Eterna round: R95, input ligand: FMN 200 uM
[2] = Eterna round: R95, input ligand: microRNA oligo, concentration not stated
[3] = Eterna round: R95, input ligand: none
[4] = input ligand: microRNA oligo, concentration not stated

Row | Sequence | apparent KD of MS2 coat protein [1] | apparent KD of MS2 coat protein [2] | apparent KD of MS2 coat protein [3] | apparent KD of MS2 coat protein (input ligand: FMN 200 uM) | apparent KD of MS2 coat protein [4] | apparent KD of MS2 coat protein (input ligand: none)
1 | UGGGUACUCCAUAGAAGAGACAUGAGGAUCACCCAUGUAGGACAAGCUUUUUGCUCGUCUUAAGAUGAGAGAUAGGA [JR_SV3TOV1_Sub013] (puzzle: Sensor v3, turn-off variant 1) | 143 nM | 114 nM | 126 nM | – | – | –
2 | AACCCAAUGGCAGGAUAUAGUAGACGACUCGGUCUAGAAGGGCCGCACAUGACAUGAGGAUCACCCAUGUUUCAUCUGAGGGAC [Eternabot solution 27] (Eterna round: R96, puzzle: Exclusion NG 1) | – | – | – | 14.1 nM | 14 nM | 19.4 nM
3 | ACAUGUUAUGUAGGAUAUUUUACACAUGAGGAUCACCCAUGUAACCGGAGGCUUUACUAUGAGUAAGAGAAGGGUAUGAACAUG [Ex NG2 #64] (Eterna round: R96, puzzle: Exclusion NG 2) | – | – | – | 92.5 nM | 42.2 nM | 83.7 nM
4 | AUUUAGUCAGGAUAUUAGUAGUAAAUAAAUAAAAUUAUUACUGAGAAGGGACAUGAGGAUCACCCAUGUGUCUA [Salish 062 v8] (Eterna round: R97, puzzle: Exclusion 4) | – | – | – | 44.4 nM | – | 24.9 nM
5 | AAGGGUAAAGGAUAUACAUGAGGAUCACCCAUGUUGAGGAAGGUUAGAUGAGGAGUAAGUAGAAGGUUAGACGA [JR_Exclu3_Sub089] (puzzle: Exclusion 3) | 57.1 nM | 52.6 nM | 69.6 nM | – | – | –
6 | UAUUUGUAAGGAUAUCUCGUCAUGGAGGAAACUCCAUGACGAGAGAAGGUACAUGAGGAUCACCCAUGUCUAUU [Mod of Fisker 23 - Jieux - Exclusion 4] (Eterna round: R97, puzzle: Exclusion 4) | – | – | – | 26.2 nM | – | 18.6 nM
7 | CAGUACUACAAGCUUAGGGACAUGAGGAUCACCCAUGUUCGUCUUAUUGAUCUAGGUACGCUGACGUACCUAGAUCU [JL-sv1-2.12 Brourd mod] (puzzle: Sensor v3, turn-off variant 1) | 15.7 nM | 29.9 nM | 15 nM | – | – | –
8 | CGUGACUGAGGAUAUCUAUGAUGUCACAUGAGGAUCACCCAUGUCCAGCGAAAGCUGGAGGGAGAAGGCAGUCACG [Fiskers Ex 5 - 31] (puzzle: Exclusion 5) | 34.5 nM | 122 nM | 115 nM | – | – | –
9 | GAGUUAACGUGAGGAAUAUACAUGAGGAUCACCCAUGUUAACAAAUAUAUUGCUCGUCUUAUAACAACAAUUAACUC [Alarm 7 - Jieux - Sensor, turn-off variant 1] (Eterna round: R97, puzzle: Sensor, turn-off variant 1) | – | – | – | 22.9 nM | – | 22.8 nM
10 | ACCUUACAUGAGGAUCACCCAUGUCAGGAUAUCUCGGGCGACCGAGGGCCGGCCGCCCAGAGAAGGGACGAGGA [Aainmaso] (puzzle: Exclusion 1) | – | 11.8 nM | – | – | – | –
11 | CCAAGGGAGGAGGAUAUACCCGCCAAUUGGCUUGUAGAAGGCCUCACAUGAGGAUCACCCAUGUGGGACAAAAC [Eternabot (Original) Solution 21] (Eterna round: R97, puzzle: Exclusion 6) | – | – | – | 22.8 nM | – | 18.4 nM
12 | UUUCCCUGUGUGAGGAUAUACUUGUUUGGGUUUUUGUAGAAGGCACAUGAGGAUCACCCAUGUACUCUGUCGUG [JR_BME4_Sub021] (puzzle: Brourd's mod of Exclusion 4) | – | 21.1 nM | – | – | – | –
13 | UCGGCGCGAGGAUAUACGUUUGCUCUUUUUCGUUUUUGUGUACAUGAGGAUCACCCAUGUAGAAGGCGCGCCGC [Apr-15 SS2-19] (puzzle: Exclusion 2) | – | 17 nM | – | – | – | –
14 | CUGAGGUAGCGGUCCUAUGACAUGAGGAUCACCCAUGUACCUUGCUUCGAGCUUUUUGCUCGUCUUAUGAUUCUCGG [JL Atriat mod 5] (puzzle: Sensor v3, turn-off variant 1) | 486 nM | 456 nM | 576 nM | – | – | –
15 | AAUACUAACACGAAAGUGUUAGUACAAUAAGCUUGUGAAACAUGAGGAUCACCCAUGUCCUCAUAAGCUCGUCUUAA [salish99_TOv2_r3_011] (puzzle: Sensor v3, turn-off variant 2) | 12.3 nM | 309 nM | 13.1 nM | – | – | –
16 | CGAGCUGCUGUGAGGAUAUACCUAUGGAUACAUAGGUAGAAGGCACAUGAGGAUCACCCAUGUCCUGCAGCUCG [jl-bmx4-4.60 Eli mod] (Eterna round: R97, puzzle: Brourd's mod of Exclusion 4) | – | – | – | 232 nM | – | 44 nM
17 | UCUCUGCGAGGAUAUACGUGCGCGCGCGCGCGCGCGCGCGUACAUGAGGAUCACCCAUGUAGAAGGCGCUCUGC [Apr-15 SS2-3] (puzzle: Exclusion 2) | – | 19.4 nM | – | – | – | –

Row | Sequence | apparent KD of MS2 coat protein [1] | apparent KD of MS2 coat protein [2] | apparent KD of MS2 coat protein [3] | apparent KD of MS2 coat protein (input ligand: FMN 200 uM) | apparent KD of MS2 coat protein [4] | apparent KD of MS2 coat protein (input ligand: none)
18 | GUAGGGUCAGGAUAUACGCAGACGGUUUCGUCGGGUUAUCUACAUGAGGAUCACCCAUGUAGAAGGGAUCAUAC [Eternabot (L1) Solution 53] (Eterna round: R97, puzzle: Exclusion 2) | – | – | – | 53.4 nM | – | 15.8 nM
19 | AGUACUAACACGAAGGUGUUAGUACAAUAAGCUUGUGAAACAUGAGGAUCACCCAUGUCCUCAUAAGCUCGUCUUAU [salish99_TOv2_r3_033] (puzzle: Sensor v3, turn-off variant 2) | 17.5 nM | 702 nM | 17.6 nM | – | – | –
20 | AGAUAGUGCAGAGGAUAUCUUAAUAGAAAGAAUAGAGAAGGCUGACAUGAGGAUCACCCAUGUGAUGUCUUGAGACUACAUGGU [Prohibition 33 - Jieux - Exclusion NG 1] (Eterna round: R96, puzzle: Exclusion NG 1) | – | – | – | – | 45.9 nM | –
21 | AGUAGAUCUACGCUUGCGUGGAUCUGCAAUGUAGGUGUUACAUGAGGAUCACCCAUGUCCUCAUUUGCUCGUCUUAG [JL turnoff v2 99.10] (puzzle: Sensor v3, turn-off variant 2) | 259 nM | 810 nM | – | – | – | –
22 | UUUAUUUUGCAAGGAUAUGUUUAAUUUUAGUUUCCUUACACAUGAGGAUCACCCAUGUUAUACUUACAGAAGGUGCAUAAUUUU [JR_ExcNG2_Sub038] (Eterna round: R96, puzzle: Exclusion NG 2) | – | – | – | – | 132 nM | –
23 | GUGUGCAGAGGAUAUACAGAGGAAGAGAAGAGAAGAGAAGGACAUGAGGAUCACCCAUGUAGAAGGCUGAGUGU [Excluse me!! 19 - Jieux - Exclusion 2] (puzzle: Exclusion 2) | 33.7 nM | 30.2 nM | 31.6 nM | – | – | –
24 | AAGAAACAUGAGGAUCACCCAUGUGAGGAUAUGAAAAAGAAAAGAAAAGAAAGAAGGCUCAGAAGGCACAAAGG [salish99-ex1_r3_029] (puzzle: Exclusion 1) | 30.5 nM | 24.1 nM | 28.6 nM | – | – | –
25 | UUUUUGUGAGGAUAUGCGUAGUAGAACAAUAGUACUACUACGUAGAAGGCACAUGAGGAUCACCCAUGUUCCUC [Fiskers Ex 4 Super stable 44 mod 15] (Eterna round: R96, puzzle: Exclusion 4) | – | – | – | 339 nM | 34.7 nM | 43.1 nM
26 | CAGUACAGAGGAUAUACAUGAGGAUCACCCAUGUGUUUCAGCUAGGAGACUAGCGAAAGUAGAAGGCUGUACUA [salish99_ex3_r4_003] (Eterna round: R97, puzzle: Exclusion 3) | – | – | – | 25.7 nM | – | 9.41 nM
27 | UUUUCUCACGUCAGGAUAUGCUAAAAGGUGACAAGGUAGAAGGGACAUGAGGAUCACCCAUGUGCUUUCAUGAG [Eternabot (L2) Solution 41] (Eterna round: R97, puzzle: Brourd's mod of Exclusion 4) | – | – | – | 15.2 nM | – | 13.8 nM
28 | AGCCACAGAGGAUAUACAUACAUCCAGUAGUUGAGAAAACUACAUGAGGAUCACCCAUGUAGAAGGCUGUGGCA [Omei Ex2 BD B4] (Eterna round: R97, puzzle: Exclusion 2) | – | – | – | 27.4 nM | – | 321 nM
29 | GUCCUACAUGAGGAUCACCCAUGUGAGGAUAUGCGAUUAGCUGCUAGGUAGUUAGUAUGUAGAAGGCGCGUGAA [EX1 #78] (Eterna round: R97, puzzle: Exclusion 1) | – | – | – | 15.6 nM | – | 14.4 nM
30 | GUCACUAGAGGAUAUACAAUGGUAUAUGAUCCUAGAGACAUACAUGAGGAUCACCCAUGUAGAAGGCUAGUAUU [Exclusion 2 - 5] (puzzle: Exclusion 2) | – | 58.3 nM | – | – | – | –
31 | GUCAGACGAGGAUAUAAAUUUGAUAACAUGAGGAUCACCCAUGUGAUCGAUAGAUCAAAUUUAGAAGGCGUCUGAC [E5/7-A4] (Eterna round: R97, puzzle: Exclusion 5) | – | – | – | 520 nM | – | 492 nM
32 | GCUGAUCGGCUAGGAUAUACAUUGAUCCUAGGAGGCUAAGCCUCAAAGACAUGAGGAUCACCCAUGUAGAAGGAGCAGCAGUAA [Armaonve] (Eterna round: R96, puzzle: Exclusion NG 2) | – | – | – | 103 nM | 23.3 nM | 39.4 nM
33 | GCGUACUGAGGAUAUACAUGAGGAUCACCCAUGUGACACAGCAUUUAUUGAUAAAUUUGUAGAAGGCAGUAGGC [JR_Ex3_Sub059] (Eterna round: R97, puzzle: Exclusion 3) | – | – | – | 144 nM | – | 25 nM
34 | GUCACAUGGACAUAGGAUCACAUGAGGAUCACCCAUGUGACUAACAAGCUUUUUGUUCGUCUUAUGUCCAUGUGAAU [Stov1/15-B1] (Eterna round: R97, puzzle: Sensor, turn-off variant 1) | – | – | – | 13.7 nM | – | 12 nM
